In patent US20230272056A1 (Merck Sharp & Dohme, published 2023):
Substitutions are numbered along the chain they refer to.

B1: 64BLH (Fab, V domains shown)
VH: EVQLVQSGAEVKKPGASVKVSCKASGYTFTSYDMHWVRQAPGQGLEWMGRIDPQSGGIKYAQKFQGRATLTVDTSTSTAYMELSRLRSDDTAVYYCARWDYGGYFDVWGQGTLVTVSS
VL: DIQMTQSPSSLSASVGDRVTITCRASQDIYNYLNWYQQKPGKAVKLLIYYTSVLETGVPSRFSGSGSGTDYTLTISSLQPEDFATYFCQQGDTLPWTFGQGTKLEIK
notes: also called 16BLM Fab
B2: 54BLH (Fab, V domains shown)
VH: B1 VH with K59R, Y104Q
VL: B1 VL with V53I
notes: also called 06BLM Fab
B3: 55BLH (Fab, V domains shown)
VH: B1 VH with K59R
VL: B1 VL with N31S, V53N
notes: also called 07BLM Fab
B4: 59BLH (Fab, V domains shown)
VH: B1 VH with K59R
VL: B1 VL
notes: also called 11BLM Fab
B5: 60BLH (Fab, V domains shown)
VH: B1 VH with I58V
VL: B1 VL with T93E
notes: also called 12BLM Fab
B6: 61BLH (Fab, V domains shown)
VH: B1 VH with S55T, G57D, Y104Q
VL: B1 VL with V53G
notes: also called 13BLM Fab
B7: 62BLH (Fab, V domains shown)
VH: B1 VH with M34T
VL: B1 VL with V53Y
notes: also called 14BLM Fab
B8: 63BLH (Fab, V domains shown)
VH: B1 VH
VL: B1 VL with V53R
notes: also called 15BLM Fab; 015BLM Fab
B9: 67BLH (Fab, V domains shown)
VH: B1 VH with W99Y, Y101H
VL: B1 VL with V53Y
notes: also called 19BLM Fab
B10: 68BLH (Fab, V domains shown)
VH: B1 VH with I58E, W99Y
VL: B1 VL with V53R
notes: also called 20BLM Fab

These binders were tested against T1, human LAP-TGFB1 Fc fusion (human) (assay: SPR).
T1 construct: also called human LAP-TGFβ1-Fc; human LAP-TGFβ-Fc isoform 1
T1 sequence (chain, as listed by the source limits assumed): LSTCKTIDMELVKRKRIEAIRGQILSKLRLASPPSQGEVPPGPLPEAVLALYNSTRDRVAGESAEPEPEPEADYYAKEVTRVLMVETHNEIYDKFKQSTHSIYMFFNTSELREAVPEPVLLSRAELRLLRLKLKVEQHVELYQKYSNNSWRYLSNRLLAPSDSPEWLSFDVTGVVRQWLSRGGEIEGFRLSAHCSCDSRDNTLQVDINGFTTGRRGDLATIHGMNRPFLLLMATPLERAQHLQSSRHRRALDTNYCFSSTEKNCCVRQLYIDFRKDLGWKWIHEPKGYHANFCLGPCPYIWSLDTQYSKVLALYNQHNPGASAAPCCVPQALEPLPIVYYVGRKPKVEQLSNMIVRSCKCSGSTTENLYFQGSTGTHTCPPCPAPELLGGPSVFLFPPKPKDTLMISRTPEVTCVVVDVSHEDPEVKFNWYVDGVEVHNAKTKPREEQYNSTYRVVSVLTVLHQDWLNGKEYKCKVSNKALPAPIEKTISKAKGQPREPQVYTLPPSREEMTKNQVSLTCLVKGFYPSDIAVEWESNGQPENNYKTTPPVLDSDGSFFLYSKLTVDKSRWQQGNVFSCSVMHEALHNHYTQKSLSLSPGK
B1 was tested, and the “Fold change in KD from pH 7.4 to pH 6” value was 0.3 fold. B2 was tested, and the “Fold change in KD from pH 7.4 to pH 6” value was 1.5 fold. B3 was tested, and the “Fold change in KD from pH 7.4 to pH 6” value was 1.8 fold. For B4, the “Fold change in KD from pH 7.4 to pH 6” value was 0.7 fold. In the case of B5, the “Fold change in KD from pH 7.4 to pH 6” value is reported as 2.8 fold. For B6, the “Fold change in KD from pH 7.4 to pH 6” value was 2.4 fold. In the case of B7, the “Fold change in KD from pH 7.4 to pH 6” value is reported as 1.2 fold. In the case of B8, the “Fold change in KD from pH 7.4 to pH 6” value is reported as 1.2 fold. B9 was tested, and the “Fold change in KD from pH 7.4 to pH 6” value was 1.7 fold. For B10, the “Fold change in KD from pH 7.4 to pH 6” value was 1.2 fold.

What follows are binders tested against T2, human LAP-TGFB2 Fc fusion (human) (assay: SPR pH 7.4).
T2 construct: also called human LAP-TGFβ2; LAP-TGFβ isoform 2
T2 sequence (chain, as listed by the source limits assumed): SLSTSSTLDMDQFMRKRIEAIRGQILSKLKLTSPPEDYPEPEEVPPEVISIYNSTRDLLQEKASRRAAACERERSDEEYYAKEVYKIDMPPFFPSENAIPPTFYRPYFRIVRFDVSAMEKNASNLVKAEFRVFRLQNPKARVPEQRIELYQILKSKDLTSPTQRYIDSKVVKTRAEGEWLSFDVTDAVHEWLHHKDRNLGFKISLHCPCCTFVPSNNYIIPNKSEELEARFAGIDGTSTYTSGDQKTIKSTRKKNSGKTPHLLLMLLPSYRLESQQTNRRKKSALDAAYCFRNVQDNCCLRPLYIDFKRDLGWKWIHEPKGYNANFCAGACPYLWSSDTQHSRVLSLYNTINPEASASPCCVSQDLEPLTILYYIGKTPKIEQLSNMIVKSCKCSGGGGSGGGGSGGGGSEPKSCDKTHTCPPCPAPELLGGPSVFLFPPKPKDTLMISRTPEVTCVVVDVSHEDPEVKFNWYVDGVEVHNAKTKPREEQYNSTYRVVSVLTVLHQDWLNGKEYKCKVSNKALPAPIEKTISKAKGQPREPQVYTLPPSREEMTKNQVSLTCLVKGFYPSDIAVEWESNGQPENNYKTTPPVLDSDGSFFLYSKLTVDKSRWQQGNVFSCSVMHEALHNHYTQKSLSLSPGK
B1: no binding (tested: 1000 nM Fab). B2: no binding (tested: 1000 nM Fab). B3: no binding (tested: 1000 nM Fab). B4: no binding (tested: 1000 nM Fab). B5: no binding (tested: 1000 nM Fab). B6: no binding (tested: 1000 nM Fab). B7: no binding (tested: 1000 nM Fab). B8: no binding (tested: 1000 nM Fab). B9: no binding (tested: 1000 nM Fab). B10: no binding (tested: 1000 nM Fab).

What follows are binders tested against T3, human LAP-TGFB3 Fc fusion (human) (assay: SPR pH 7.4).
T3 construct: also called human LAP-TGFβ3; LAP-TGFβ isoform 3
T3 sequence (chain, as listed by the source limits assumed): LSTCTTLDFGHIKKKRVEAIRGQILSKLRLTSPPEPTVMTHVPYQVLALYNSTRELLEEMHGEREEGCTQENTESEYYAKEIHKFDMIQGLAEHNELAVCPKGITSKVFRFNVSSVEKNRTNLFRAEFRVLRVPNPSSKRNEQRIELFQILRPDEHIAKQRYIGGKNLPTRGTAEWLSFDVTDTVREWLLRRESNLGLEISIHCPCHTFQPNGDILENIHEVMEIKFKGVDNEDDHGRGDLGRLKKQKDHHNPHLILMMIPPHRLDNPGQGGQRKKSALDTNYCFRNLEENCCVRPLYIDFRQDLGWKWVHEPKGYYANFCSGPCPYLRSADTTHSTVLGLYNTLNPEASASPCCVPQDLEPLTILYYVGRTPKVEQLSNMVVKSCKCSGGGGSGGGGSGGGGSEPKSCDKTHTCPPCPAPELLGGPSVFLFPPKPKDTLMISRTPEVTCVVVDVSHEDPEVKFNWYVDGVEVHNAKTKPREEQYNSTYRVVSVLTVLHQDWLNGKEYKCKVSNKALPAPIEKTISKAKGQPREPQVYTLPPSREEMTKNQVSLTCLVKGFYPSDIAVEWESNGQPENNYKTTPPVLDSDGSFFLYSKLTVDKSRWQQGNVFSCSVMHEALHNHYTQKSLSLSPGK
B1: no binding (tested: 1000 nM Fab). B2: no binding (tested: 1000 nM Fab). B3: no binding (tested: 1000 nM Fab). B4: no binding (tested: 1000 nM Fab). B5: no binding (tested: 1000 nM Fab). B6: no binding (tested: 1000 nM Fab). B7: no binding (tested: 1000 nM Fab). B8: no binding (tested: 1000 nM Fab). B9: no binding (tested: 1000 nM Fab). B10: no binding (tested: 1000 nM Fab).

These binders were tested against T1, human LAP-TGFB1 Fc fusion (assay: SPR pH 7.4, antigen captured on Fab 54BLH).
Text: (§1) A Series S C1 sensor chip (Cytiva, catalog BR100535) was immobilized with low densities of high affinity Fab 54BLH on a Biacore T200 instrument with 1×HBS-EP+(Teknova, catalog H8022). This surface served as a monovalent capture surface for a low-density layer of heterodimer human LAP-TGFβ1 complex leaving the second binding site exposed for monovalent kinetic binding analysis with both mAbs and Fabs. Immobilized flow cell 1 served as the reference and flow cells 2, 3 and 4 were used to evaluate the binding interaction between human LAP-TGFβ1 and yeast display mutant mAbs and Fabs.
(§2) Approximately 15-25 RU of human LAP-TGFβ1-Fc was captured to the Fab capture surface followed by injection of 1:3 serially diluted Fabs and mAbs from 6 nM to 0.07 nM (Fabs: 54BLH, 55BLH, 60BLH, 63BLH, 64BLH-mAbs: 69BLH, 70BLH) and 1:3 serially diluted Fab and mAbs from 60 nM to 0.74 nM (Fabs: 59BLH, 66BLH, 67BLH—mAbs: 74BLH, 75BLH, 78BLH, 79BLH, 81BLH, 82BLH) including 0 nM. The binding data was double referenced by subtraction of signal from a reference flow cell and the 0 nM injections for evaluation of Fabs and mAbs respectively. Binding rate constants were calculated/determined by fitting the data with a 1:1 binding model (Cytiva Biacore T200 Evaluation software 3.0).
For B1, the Kd was 0.062 nM, the koff was 0.000939 s⁻¹ and the kon was 1.53e+07 M⁻¹ s⁻¹. B2 gave a Kd of 0.00477 nM, a koff of 3.34e-05 s⁻¹ and a kon of 7.03e+06 M⁻¹ s⁻¹. Work on B3 yielded a Kd of 0.125 nM, a koff of 0.00109 s⁻¹ and a kon of 8.75e+06 M⁻¹ s⁻¹. B4 was tested, and the Kd was 0.044 nM, the koff was 0.000575 s⁻¹ and the kon was 1.31e+07 M⁻¹ s⁻¹. B5 gave a Kd of 0.036 nM, a koff of 0.000348 s⁻¹ and a kon of 9.65e+06 M⁻¹ s⁻¹. In the case of B8, the Kd is reported as 0.355 nM, the koff is reported as 0.00341 s⁻¹ and the kon is reported as 9.61e+06 M⁻¹ s⁻¹. B9 gave a Kd of 2.36 nM, a koff of 0.0155 s⁻¹ and a kon of 6.69e+06 M⁻¹ s⁻¹.

What follows are binders tested against T1, human LAP-TGFB1 Fc fusion (assay: SPR pH 6.0, antigen captured on Fab 54BLH).
Text: as §1, §2
Binder B1 has a Kd of 0.182 nM, a koff of 0.00194 s⁻¹ and a kon of 1.07e+07 M⁻¹ s⁻¹. With B2 the Kd was 0.0217 nM, the koff was 0.000101 s⁻¹ and the kon was 4.65e+06 M⁻¹ s⁻¹. B3 was tested, and the Kd was 0.335 nM, the koff was 0.00248 s⁻¹ and the kon was 7.39e+06 M⁻¹ s⁻¹. For B4, the Kd was 0.179 nM, the koff was 0.00126 s⁻¹ and the kon was 7.08e+06 M⁻¹ s⁻¹. Work on B5 yielded a Kd of 0.296 nM, a koff of 0.00167 s⁻¹ and a kon of 5.65e+06 M⁻¹ s⁻¹. B8 gave a Kd of 1.06 nM, a koff of 0.00796 s⁻¹ and a kon of 7.51e+06 M⁻¹ s⁻¹. With B9 the Kd was 18.8 nM, the koff was 0.046 s⁻¹ and the kon was 2.44e+06 M⁻¹ s⁻¹.

Each binder was assayed against T1, human LAP-TGFB1 Fc fusion (assay: SPR pH 7.4, antigen-Fc captured, Fab analyte).
B1 was tested, and the “Fold improvement in KD” value was 760 fold, the Kd was 0.077 nM and the koff was 0.0005 s⁻¹. For the same binder, the kon was 6.51e+06 M⁻¹ s⁻¹. In the case of B2, the “Fold improvement in KD” value is reported as 14600 fold, the Kd is reported as 0.004 nM and the koff is reported as 2.07e-05 s⁻¹. It also gave a kon of 4.96e+06 M⁻¹ s⁻¹. B3 was tested, and the “Fold improvement in KD” value was 992 fold, the Kd was 0.059 nM and the koff was 0.000528 s⁻¹. The kon was 9.08e+06 M⁻¹ s⁻¹. B4 was tested, and the “Fold improvement in KD” value was 887 fold, the Kd was 0.066 nM and the koff was 0.00047 s⁻¹. For the same binder, the kon was 7.1e+06 M⁻¹ s⁻¹. For B5, the “Fold improvement in KD” value was 2440 fold, the Kd was 0.024 nM and the koff was 0.000186 s⁻¹. For the same binder, the kon was 7.91e+06 M⁻¹ s⁻¹. For B6, the “Fold improvement in KD” value was 4500 fold, the Kd was 0.013 nM and the koff was 4.52e-05 s⁻¹. For the same binder, the kon was 3.57e+06 M⁻¹ s⁻¹. B7 was tested, and the “Fold improvement in KD” value was 222 fold, the Kd was 0.246 nM and the koff was 0.00124 s⁻¹. It also gave a kon of 4.69e+06 M⁻¹ s⁻¹. In the case of B8, the “Fold improvement in KD” value is reported as 197 fold, the Kd is reported as 0.297 nM and the koff is reported as 0.00198 s⁻¹. It also gave a kon of 6.79e+06 M⁻¹ s⁻¹. With B9 the “Fold improvement in KD” value was 61 fold, the Kd was 0.961 nM and the koff was 0.00476 s⁻¹. For the same binder, the kon was 4.95e+06 M⁻¹ s⁻¹. B10 was tested, and the “Fold improvement in KD” value was 134 fold, the Kd was 0.438 nM and the koff was 0.00331 s⁻¹. The kon was 7.57e+06 M⁻¹ s⁻¹.

Each binder was assayed against T1, human LAP-TGFB1 Fc fusion (assay: SPR pH 6.0, antigen-Fc captured, Fab analyte).
Procedure: A Series S CM4 sensor chip (Cytiva, catalog BR100534) was immobilized with an anti-human Fc capture antibody following the kit protocol (Cytiva, catalog BR100839) on a Biacore T200 instrument with 1× HBS-EP+ (Teknova, catalog H8022). […] The binding data were double referenced by subtraction of signal from a reference (capture surface only) flow cell and the 0 nM Fab injection. Binding rate constants were determined by fitting the data with a 1:1 binding model (Cytiva Biacore T200 Evaluation software 3.0).
For B1, the Kd was 0.024 nM, the koff was 0.000843 s⁻¹ and the kon was 3.49e+07 M⁻¹ s⁻¹. With B2 the Kd was 0.006 nM, the koff was 4.73e-05 s⁻¹ and the kon was 7.56e+06 M⁻¹ s⁻¹. With B3 the Kd was 0.105 nM, the koff was 0.000757 s⁻¹ and the kon was 7.17e+06 M⁻¹ s⁻¹. Binder B4 has a Kd of 0.049 nM, a koff of 0.000543 s⁻¹ and a kon of 1.11e+07 M⁻¹ s⁻¹. B5 was tested, and the Kd was 0.067 nM, the koff was 0.000481 s⁻¹ and the kon was 7.23e+06 M⁻¹ s⁻¹. In the case of B6, the Kd is reported as 0.031 nM, the koff is reported as 0.000121 s⁻¹ and the kon is reported as 3.91e+06 M⁻¹ s⁻¹. B7 showed a Kd of 0.29 nM, a koff of 0.00168 s⁻¹ and a kon of 5.8e+06 M⁻¹ s⁻¹. B8 showed a Kd of 0.369 nM, a koff of 0.00277 s⁻¹ and a kon of 7.51e+06 M⁻¹ s⁻¹. B9 showed a Kd of 1.59 nM, a koff of 0.0122 s⁻¹ and a kon of 7.63e+06 M⁻¹ s⁻¹. With B10 the Kd was 0.508 nM, the koff was 0.00454 s⁻¹ and the kon was 8.94e+06 M⁻¹ s⁻¹.

Target: T1, human LAP-TGFB1 Fc fusion
Test: SPR pH 7.4, antigen-Fc captured, Fab analyte
Remark: another data set of the same source
In the case of B1, the Kd is reported as 0.077 nM, the koff is reported as 0.0005 s⁻¹ and the kon is reported as 6.51e+06 M⁻¹ s⁻¹. Binder B2 has a Kd of 0.004 nM, a koff of 2.07e-05 s⁻¹ and a kon of 4.96e+06 M⁻¹ s⁻¹. Work on B3 yielded a Kd of 0.059 nM, a koff of 0.000528 s⁻¹ and a kon of 9.08e+06 M⁻¹ s⁻¹. B4 showed a Kd of 0.066 nM, a koff of 0.00047 s⁻¹ and a kon of 7.1e+06 M⁻¹ s⁻¹. With B5 the Kd was 0.024 nM, the koff was 0.000186 s⁻¹ and the kon was 7.91e+06 M⁻¹ s⁻¹. B6 showed a Kd of 0.013 nM, a koff of 4.52e-05 s⁻¹ and a kon of 3.57e+06 M⁻¹ s⁻¹. For B7, the Kd was 0.246 nM, the koff was 0.00124 s⁻¹ and the kon was 4.69e+06 M⁻¹ s⁻¹. Work on B8 yielded a Kd of 0.297 nM, a koff of 0.00198 s⁻¹ and a kon of 6.79e+06 M⁻¹ s⁻¹. Work on B9 yielded a Kd of 0.961 nM, a koff of 0.00476 s⁻¹ and a kon of 4.95e+06 M⁻¹ s⁻¹. For B10, the Kd was 0.438 nM, the koff was 0.00331 s⁻¹ and the kon was 7.57e+06 M⁻¹ s⁻¹.
